Measurements taken from patent publication US12295987B2, “Method of using a GIP/GLP1 co-agonist for diabetes” (Eli Lilly and Company, priority 2018, dated 2025).
Numbered stars: 1 amine (or outer) side, 2 acyl side, 3 side chain; on linkers, the order of the positions; unused ones are H or OH. Square brackets hold non-standard residues; d marks the D form. Side chains are listed from the residue outwards. Ends that are not written are not given here. * marks the point of attachment. C18 diacid = O=C(O)CCCCCCCCCCCCCCCCC(=O)*; γGlu = O=C(O)[C@H](CCC(=O)[*:2])N[*:1]; αMeP = C[C@@]1(C(=O)O)CCCN1; AEEA = NCCOCCOCC(=O)O

Target: T1, human gastric inhibitory peptide receptor (hGIPR) (Homo sapiens, UniProt P48546)
T1 construct: expressed in transfected cells; host or cells: HEK293
T1 sequence (P48546 22-466): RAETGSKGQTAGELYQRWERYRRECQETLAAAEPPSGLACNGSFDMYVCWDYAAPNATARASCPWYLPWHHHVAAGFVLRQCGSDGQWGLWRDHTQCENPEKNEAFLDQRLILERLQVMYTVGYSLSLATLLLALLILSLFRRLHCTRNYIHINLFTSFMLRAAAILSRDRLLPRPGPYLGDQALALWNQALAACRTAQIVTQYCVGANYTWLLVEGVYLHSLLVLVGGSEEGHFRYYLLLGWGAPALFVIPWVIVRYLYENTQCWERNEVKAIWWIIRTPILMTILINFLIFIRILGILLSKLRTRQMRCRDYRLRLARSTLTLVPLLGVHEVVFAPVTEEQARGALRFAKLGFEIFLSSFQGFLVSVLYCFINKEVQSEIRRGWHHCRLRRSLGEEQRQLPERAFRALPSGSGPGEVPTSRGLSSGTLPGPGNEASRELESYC
Test: cAMP pharmacological functional assay in presence of 0.1% casein, hGIPR
Type: cell-based
Conditions: ratio of hGIPR to hGLP1R cAMP EC50 ratios

Y-αMePro-EGTFTSDYSILLDEK((2-[2-(2-Amino-ethoxy)-ethoxy]-acetyl)2-(γGlu)-CO—(CH2)16—CO2H)AQQAFIEYLIEGGPSSG-NH2 (Y[αMeP]EGTFTSDYSILLDEK([AEEA-AEEA-γGlu-C18 diacid])AQQAFIEYLIEGGPSSG-NH2; N-terminus assumed; SMILES CC[C@H](C)[C@H](NC(=O)[C@H](CC(C)C)NC(=O)[C@H](Cc1ccc(O)cc1)NC(=O)[C@H](CCC(=O)O)NC(=O)[C@@H](NC(=O)[C@H](Cc1ccccc1)NC(=O)[C@H](C)NC(=O)[C@H](CCC(N)=O)NC(=O)[C@H](CCC(N)=O)NC(=O)[C@H](C)NC(=O)[C@H](CCCCNC(=O)COCCOCCNC(=O)COCCOCCNC(=O)CC[C@H](NC(=O)CCCCCCCCCCCCCCCCC(=O)O)C(=O)O)NC(=O)[C@H](CCC(=O)O)NC(=O)[C@H](CC(=O)O)NC(=O)[C@H](CC(C)C)NC(=O)[C@H](CC(C)C)NC(=O)[C@@H](NC(=O)[C@H](CO)NC(=O)[C@H](Cc1ccc(O)cc1)NC(=O)[C@H](CC(=O)O)NC(=O)[C@H](CO)NC(=O)[C@@H](NC(=O)[C@H](Cc1ccccc1)NC(=O)[C@@H](NC(=O)CNC(=O)[C@H](CCC(=O)O)NC(=O)[C@]1(C)CCCN1C(=O)[C@@H](N)Cc1ccc(O)cc1)[C@@H](C)O)[C@@H](C)O)[C@@H](C)CC)[C@@H](C)CC)C(=O)N[C@@H](CCC(=O)O)C(=O)NCC(=O)NCC(=O)N1CCC[C@H]1C(=O)N[C@@H](CO)C(=O)N[C@@H](CO)C(=O)NCC(N)=O) [Peptide 197]
[hGIPR/hGLP1R] EC50 Ratio: 4.52
